Measurements published in article PMC5344674.

Key:
[1] = target: Orsay virus mini-fusion protein CP-δ(215–485) (Orsay virus); assay: SEC; Superdex 200 gel filtration; elution buffer 50 mM Tris-HCl pH 7.5, 250 mM NaCl, 2-ME, 1 mM NaN3
[2] = target: Orsay virus δ(1–66) (Orsay virus); assay: crystal structure; hanging-drop vapor diffusion at 20°C; SAD with SeMet crystals, refined against native data at 2.22 Å
[3] = target: Orsay virus full-length δ protein (Orsay virus); assay: AUC; sedimentation velocity, 27.6 μM δ, 20°C, 30,000 rpm, 50 mM TRIS pH 7.5, 250 mM NaCl; PCSA-DS molar mass transformation
[4] = target: Orsay virus full-length δ protein (Orsay virus); assay: native MS; direct infusion by nano-spray, 10ug/mL protein complex in 5% ACN, 0.1% FA, Orbitrap Fusion Lumos; non-denaturing conditions; intact pentamer

For “Orsay virus mini-fusion protein CP-δ(215–485) (domain or fragment)”, the stoichiometry N [1] was 5.
Substance “Orsay virus δ(1–66) (domain or fragment)” has a stoichiometry N [2] of 5.
For “Orsay virus full-length δ protein (natural protein)”, the stoichiometry N [3] was 5 and the stoichiometry N [4] was 5.
